Legend:
human IL-17A (human) = human IL-17A (human) (UniProt Q16552); experiment: cell-based or functional assay
human TNF-α (human) = human TNF-α (human) (UniProt P01375); experiment: cell-based or functional assay
Sequence of UniProt P01375 (P01375 77-233 limits assumed): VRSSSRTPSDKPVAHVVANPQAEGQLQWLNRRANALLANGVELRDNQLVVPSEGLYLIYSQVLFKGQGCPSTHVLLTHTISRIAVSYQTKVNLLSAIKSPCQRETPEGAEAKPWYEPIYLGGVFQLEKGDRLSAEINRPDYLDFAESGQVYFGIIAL

Sequence of UniProt Q16552 (Q16552 24-155 limits assumed): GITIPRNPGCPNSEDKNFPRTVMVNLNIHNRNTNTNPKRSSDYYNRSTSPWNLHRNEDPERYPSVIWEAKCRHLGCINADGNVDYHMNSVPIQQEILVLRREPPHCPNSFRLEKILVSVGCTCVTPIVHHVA

LY3114062 (bispecific antibody) was tested, and the IC50, hIL-6 secretion of commercial RA-FLS cells stimulated with IL-17A and TNF-α (co-neutralization) (human IL-17A (human)) was 0.0149 nM, the IC50, hIL-6 secretion of commercial RA-FLS cells stimulated with hIL-17A (human IL-17A (human)) was 0.371 nM and the IC50, hIL-6 secretion of commercial RA-FLS cells stimulated with IL-17A and TNF-α (co-neutralization) (human TNF-α (human)) was 0.0149 nM. For the same substance, the IC50, hIL-6 secretion of commercial RA-FLS cells stimulated with hTNF-α (human TNF-α (human)) was 0.0186 nM.

Reference: patent publication US20220098297A1
